Laboratory results as given in paper PMC4275181, “Evolution of RNA-Protein Interactions: Non-Specific Binding Led to RNA Splicing Activity of Fungal Mitochondrial Tyrosyl-tRNA Synthetases” (PLoS Biology, 2014).

Biological target: the molecule itself
Experiment: SAXS; molecular weight from forward scattering I(0) against a bovine serum albumin standard; free protein at at least three concentrations in 100 mM KCl, 5 mM MgCl2, 10 mM Tris-HCl (pH 7.5), 5% glycerol

B1: CYT-18* (Neurospora crassa mitochondrial tyrosyl-tRNA synthetase lacking the mitochondrial targeting sequence and most of the C-tail) (enzyme)
chain: MLRREFGPKYTAKINEAEENWQARAEAIKKGKKQNTWDLFEERGYVKDTAGTKEHIAELMRTRRIGAYVGIDPTAPSLHVGHLLPLMPLFWMYLEGYKAFTLIGGSTAKIGDPTGRLKSRDHLSSSDATMNMTKIHYQLKKLWENVDTQMRARGYEADWARKRGIVNNNHWWNKQPMLEVLRRVGHALRIGPMLSRDTVKNKMTQGDGVSFAEFTYPIMQGWDWFELFYQQGVQMQIGGSDQYGNIISGLEVVKAARESEPDPQERKYVTPKTALDECVGFTVPLLTDSSGAKFGKSAGNAIWLDPYQTSVFDFYGYFVRRSDQEVENLLKLFTFMPISEITKTMEEHIKDPSKRVAQHTLAREVVTLVHGKQEASAAEDQHRMMYTGQMTIPQVSRAKDAATGGDQYKTISDQPVTLNNAPRIDMILPESLIMGKSIGRILYAAGLASSTTEGHKLAAAQGCYVGGAHRAGGENVTMNPDLISFMPVKLWFPGETQRYLINGNLLILRKGKHNVRVIQMVSDVEYAASGQTYPGQSFTGAVRKLNEIMKNL
notes: extra N-terminal methionine of the expression construct; stop codons introduced after Leu583; Derived from pEX560 (wild-type CYT-18, amino acids 33-669); also called CYT18/ΔC-tail; N. crassa mtTyrRS
  stoichiometry N: 2
